Data on two molecules can be found in patent US20110217318A1 (MOCHIDA PHARMACEUTICAL, published 2011).

Experiment [1] has as its target T1, mouse GPVI extracellular region-human Fc fusion protein (mGPVI-hFc) (mouse).
T1 construct: whole fusion entry; also called GPVI-MMM-hFc; mouse GPVI-Fc
As to the kind of experiment: competition ELISA, soluble GPVI-Fc against immobilised hGPVI-hFc. Here is the method:
To the plate, wherein hGPVI-hFc has been immobilized at 4 μg/mL, a mixture of peroxidase-labeled F1232-37-2 or cF1232-37-2 by the method described in EXAMPLE 14, and hGPVI-hFc, mGPVI-hFc, hGPVI-mL3-hFc, wherein these were prepared in EXAMPLE 7, or hGPVI-K59E-hFc (a fusion protein consisting of one amino acid mutated human GPVI extracellular region, wherein lysine at 59 of human GPVI is substituted for glutamic acid, and human Fc), which has been prepared by the same method as that of EXAMPLE 1 and diluted with 0.1% BSA/PBS was added, and the plate was incubated at 37° C. for one hour. After incubation, the mixture was developed using TMB solution, and absorbance at 450 nm was measured.
In general terms: An ELISA detects its analyte on a solid surface through an enzyme-linked reagent.

The target in experiment [2] is T2, human platelet membrane glycoprotein VI (GPVI) on human platelets (human, UniProt Q9HCN6 21-339).
T2 construct: whole, on cells
T2 sequence (looked up): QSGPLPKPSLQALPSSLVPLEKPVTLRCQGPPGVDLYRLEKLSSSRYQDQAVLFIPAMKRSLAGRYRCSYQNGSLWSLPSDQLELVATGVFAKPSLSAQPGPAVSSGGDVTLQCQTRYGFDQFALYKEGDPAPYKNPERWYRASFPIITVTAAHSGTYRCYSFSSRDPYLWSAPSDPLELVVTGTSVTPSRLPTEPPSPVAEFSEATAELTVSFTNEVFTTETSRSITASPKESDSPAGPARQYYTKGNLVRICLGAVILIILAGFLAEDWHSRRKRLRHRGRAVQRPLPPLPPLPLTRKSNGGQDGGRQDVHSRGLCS
As to the kind of experiment: homologous competitive binding of 125I-labelled antibody on washed human platelets, n=3, mean±S.E. Here is the method:
(§1) ACD-A (acid citrate-dextrose) was added to the PRPs prepared from citrated blood obtained from healthy human or cynomolgus monkey to adjust the pH to 6.5. The obtained PRPs were collected by centrifugation at 2,000 rpm. The pelleted platelets were washed with HEPES Buffer (pH was adjusted to 6.5 with ACD-A). An appropriate quantity of HEPES Buffer (pH 7.4) was added to prepare platelet suspension. The number of platelets were determined with SYSMEX® F-820 (Sysmex Co.), then the above-described platelet suspension was diluted with HEPES buffer (pH 7.4) to platelet count at 6×10⁵ cells/μL.
(§2) To the diluted washed platelets, the labeled and non-labeled antibodies were added at final concentrations of 3 nM and 0-1250 nM, respectively, and mixed to obtain platelet count at 3×10⁵ cells/μL. After incubating the mixture on the ice for one hour, the reactant was passed through 30% sucrose/HEPE buffer (pH 7.4) layered column and centrifuged at 12,000 g for 5 min in order to separate the platelets and non-bound antibodies. The radioactivity of each fraction was measured using automatic gamma counter 1470 WIZARD (PerkinElmer Japan). Data was analyzed using GraphPad Prism software (Graph Pad Software, Inc.).

The target of experiment [3] is T3, cynomolgus monkey GPVI on cynomolgus monkey platelets (cynomolgus monkey, UniProt A0A2K5VXN2 21-318).
T3 construct: whole, on cells; also called simian platelets
T3 sequence: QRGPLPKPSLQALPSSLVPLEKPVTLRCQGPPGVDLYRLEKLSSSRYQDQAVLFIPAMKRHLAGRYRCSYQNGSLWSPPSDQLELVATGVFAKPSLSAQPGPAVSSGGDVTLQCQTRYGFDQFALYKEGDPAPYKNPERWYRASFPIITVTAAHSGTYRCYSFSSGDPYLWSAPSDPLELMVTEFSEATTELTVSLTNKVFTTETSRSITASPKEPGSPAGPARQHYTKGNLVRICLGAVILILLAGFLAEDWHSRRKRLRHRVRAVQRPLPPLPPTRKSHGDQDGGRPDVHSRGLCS
The experiment in a line: homologous competitive binding of 125I-labelled antibody on washed cynomolgus monkey platelets, n=3, mean±S.E. The method, then: as §1, §2

The target of experiment [4] is T4, human GPVI extracellular region-human Fc fusion protein (hGPVI-hFc) (human).
T4 construct: Expressed in COS-1, purified on Protein A; also called GPVI-HHH-hFc; hGPVIHHH-hFc
As to the kind of experiment: SPR BIACORE 3000 as in Example 5 (the reference itself). (In SPR one partner is held on a chip, and binding of the other changes the refractive index at the surface.)

In experiment [5] the target is T4, human GPVI extracellular region-human …. As to the kind of experiment: ELISA on immobilised hGPVI-hFc; ++ = absorbance 1.0 to 2.0. Here is the method: The hGPVI-hFc prepared by EXAMPLE 1B was diluted with D-PBS to 2 μg/mL and added to immunoplate (Maxisorp, NUNC) at 50 μL/well. After incubation at 37° C. for one hour, the well was washed five times with ion-exchanged water, and D-PBS (pH7.4) containing 2% STABILGUARD® (chemical solutions for stabilizing biological molecules) (Surmodics) was added to each well in 100 μL for blocking. Next, culture supernatant was added to each well and incubated at 37° C. for one hour. After incubation, the well was washed three times with the saline containing 0.05% TWEEN®20 (Polyoxyethylene (20) sorbitan monolaurate). […] After incubation at 37° C. for one hour, washing in a similar manner was performed five times and TMB solution (BIOFX® (reagents for scientific or medical research) was added to each well. After ten minutes at room temperature, the reaction was terminated with 0.5 M sulfuric acid solution. Subsequently, absorbance at 450 nm was measured with the plate spectrophotometer (Multiscan JX, Dainippon Pharmaceutical). As a result, the cell whose culture supernatant reacted to hGPVI-hFc was selected and a cloning with limiting dilution method (“The Introduction to Monoclonal Antibody Experimental Procedure” written by Tamie Andoh and Takeshi Chiba (Kodansha, p97)) was performed. […]

T1 sequence (chain, as listed by the source limits assumed): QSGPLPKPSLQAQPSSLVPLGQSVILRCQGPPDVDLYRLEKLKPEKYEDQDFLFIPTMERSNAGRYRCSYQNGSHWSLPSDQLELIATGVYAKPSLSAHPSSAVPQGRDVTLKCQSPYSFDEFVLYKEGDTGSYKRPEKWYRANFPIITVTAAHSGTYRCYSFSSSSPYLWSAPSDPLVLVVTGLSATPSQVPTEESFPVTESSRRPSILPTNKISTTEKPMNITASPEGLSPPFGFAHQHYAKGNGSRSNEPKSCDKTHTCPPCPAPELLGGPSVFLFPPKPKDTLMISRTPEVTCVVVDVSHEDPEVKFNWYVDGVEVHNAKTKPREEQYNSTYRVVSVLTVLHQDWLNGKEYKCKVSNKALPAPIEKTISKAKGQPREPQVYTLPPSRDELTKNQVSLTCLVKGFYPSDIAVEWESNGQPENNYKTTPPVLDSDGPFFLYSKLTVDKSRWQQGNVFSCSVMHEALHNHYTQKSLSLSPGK

B1: cF1232-37-2 (mouse/human chimeric F1232-37-2) (antibody, V domains shown)
VH: VQLQQSGPELVRPGESVKISCKGSGYTFTDYAIHWVKLSHAKSLEWIGVISIYYDDTNYNQKFKGKATMTVDKSSSTAYLELARLTSEDSAIYYCARRRDSSGPYAMDYWGQGTSVTVSS
VL: DIVLTQSPASLAVSLGQRATISCRASESVDSYGNSFMHWYQQKPGQPPKLLIYRASNLESGIPARFSGSGSRTDFTLTINPVEADDVATYYCQQSNEDPYTFGGGTKLEIKR
notes: V regions of F1232-37-2 on human IgG4 (Cgamma4) and human Ckappa constant regions; made in COS-1 (/COS) or CHO (/CHO); both preparations are kept under this one id; also called cF1232-37-2/COS; cF1232-37-2/CHO
Regarding B1, the binding result in experiment [1] is reported as “no binding”. The Kd (commonly the equilibrium constant for the complex coming apart) amounted to 17 nM in experiment [2] and 20 nM in experiment [3].

B2: F1232-37-2 (antibody, V domains shown)
VH: VQLQQSGPELVRPGESVKISCKGSGYTFTDYAIHWVKLSHAKSLEWIGVISIYYDDTNYNQKFKGKATMTVDKSSSTAYLELARLTSEDSAIYYCARRRDSSGPYAMDYWGQGTSVTVSS
VL: DIVLTQSPASLAVSLGQRATISCRASESVDSYGNSFMHWYQQKPGQPPKLLIYRASNLESGIPARFSGSGSRTDFTLTINPVEADDVATYYCQQSNEDPYTFGGGTKLEIKR
notes: mouse hybridoma monoclonal antibody; also called F1232-37-2 antibody; mouse monoclonal antibody F1232-37-2
Regarding B2, the “KD (Relative value)” value in experiment [4] is 1 relative to F1232-37-2 = 1. In addition, in experiment [5], the absorbance was 1 to 2 od. The binding result in experiment [1] is “no binding”.
